Experimental data taken from PMC5727232, “Structural basis for genome wide recognition of 5-bp GC motifs by SMAD transcription factors”.

What was measured:
Smad4 MH1 domain [1] = target: T1, Smad4 MH1 domain (Homo sapiens, UniProt Q13485 10-140); test: ITC; EMSA: 20 mM Tris pH 7.2, 80 mM NaCl, 2 mM DTT, 7.5 nM Cy5-DNA, 30 min room temperature, gel at 20 C; ITC: Tris pH 7.0, 20 C; conditions: protein: recombinant, tags: N-terminal His, cleaved (TEV or 3C), blunt
Smad4 MH1 domain [2] = target: T1, Smad4 MH1 domain; test: NMR; pH 6.3, 100 mM NaCl, 298 K; EMSA: 20 mM Tris pH 7.2, 80 mM NaCl, 2 mM DTT, 7.5 nM Cy5-DNA, 30 min room temperature, gel at 20 C; ITC: Tris pH 7.0, 20 C; conditions: protein: recombinant; tags: N-terminal His, cleaved (TEV or 3C); blunt
Smad4 MH1 domain [3] = target: T1, Smad4 MH1 domain; test: X-ray crystallography (3.03 A); Zn2+; EMSA: 20 mM Tris pH 7.2, 80 mM NaCl, 2 mM DTT, 7.5 nM Cy5-DNA, 30 min room temperature, gel at 20 C; ITC: Tris pH 7.0, 20 C; conditions: protein: recombinant; tags: N-terminal His, cleaved (TEV or 3C); blunt, self-complementary
Smad4 MH1 domain [4] = target: T1, Smad4 MH1 domain; test: NMR; 1 equivalent DNA; pH 6.3, 100 mM NaCl, 298 K; EMSA: 20 mM Tris pH 7.2, 80 mM NaCl, 2 mM DTT, 7.5 nM Cy5-DNA, 30 min room temperature, gel at 20 C; ITC: Tris pH 7.0, 20 C; conditions: protein: recombinant; tags: N-terminal His, cleaved (TEV or 3C); blunt
[5] = target: T2, Trichoplax Smad4 MH1 domain (Trichoplax adhaerens, UniProt B3S7S5 1-151); test: EMSA; EMSA: 20 mM Tris pH 7.2, 80 mM NaCl, 2 mM DTT, 7.5 nM Cy5-DNA, 30 min room temperature, gel at 20 C; ITC: Tris pH 7.0, 20 C; conditions: protein: recombinant; tags: N-terminal His-TEV, cleaved; label: 5' Cy5; blunt
T2 sequence: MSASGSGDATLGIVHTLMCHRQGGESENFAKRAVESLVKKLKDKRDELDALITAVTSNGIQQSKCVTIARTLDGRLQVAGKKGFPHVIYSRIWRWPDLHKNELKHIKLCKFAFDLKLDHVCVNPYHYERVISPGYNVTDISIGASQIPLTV

Smad3 MH1 domain [6] = target: T3, Smad3 MH1 domain (Homo sapiens, UniProt P84022 1-141); test: EMSA; text says GC1 oligonucleotide; EMSA: 20 mM Tris pH 7.2, 80 mM NaCl, 2 mM DTT, 7.5 nM Cy5-DNA, 30 min room temperature, gel at 20 C; ITC: Tris pH 7.0, 20 C; conditions: protein: recombinant; tags: N-terminal His-TEV, cleaved; label: 5' Cy5; blunt
Smad4 MH1 domain [7] = target: T1, Smad4 MH1 domain; test: X-ray crystallography (2.05 A); Zn2+; EMSA: 20 mM Tris pH 7.2, 80 mM NaCl, 2 mM DTT, 7.5 nM Cy5-DNA, 30 min room temperature, gel at 20 C; ITC: Tris pH 7.0, 20 C; conditions: protein: recombinant; tags: N-terminal His, cleaved (TEV or 3C); blunt, self-complementary
Smad4 MH1 domain [8] = target: T1, Smad4 MH1 domain; test: EMSA; EMSA: 20 mM Tris pH 7.2, 80 mM NaCl, 2 mM DTT, 7.5 nM Cy5-DNA, 30 min room temperature, gel at 20 C; ITC: Tris pH 7.0, 20 C; conditions: protein: recombinant; tags: N-terminal His, cleaved (TEV or 3C); label: 5' Cy5; blunt
Smad3 MH1 domain [9] = target: T3, Smad3 MH1 domain; test: as above; conditions: protein: recombinant; tags: N-terminal His-TEV, cleaved; label: 5' Cy5; blunt
Smad4 MH1 domain [10] = target: T1, Smad4 MH1 domain; test: EMSA; no nanomolar binding; EMSA: 20 mM Tris pH 7.2, 80 mM NaCl, 2 mM DTT, 7.5 nM Cy5-DNA, 30 min room temperature, gel at 20 C; ITC: Tris pH 7.0, 20 C; conditions: protein: recombinant; tags: N-terminal His, cleaved (TEV or 3C); label: 5' Cy5; blunt

T1 sequence (Q13485 10-140): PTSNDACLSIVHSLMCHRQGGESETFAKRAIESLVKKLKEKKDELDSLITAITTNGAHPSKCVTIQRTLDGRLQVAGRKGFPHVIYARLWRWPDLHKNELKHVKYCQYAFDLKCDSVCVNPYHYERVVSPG
T3 sequence (P84022 1-141): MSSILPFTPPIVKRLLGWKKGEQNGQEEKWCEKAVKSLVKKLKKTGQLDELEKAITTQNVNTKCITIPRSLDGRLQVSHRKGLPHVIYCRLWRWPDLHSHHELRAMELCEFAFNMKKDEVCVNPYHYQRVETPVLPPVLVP

B1: CAGAC (ITC) (dsDNA)
DNA 1: AGTCAGACGCT
DNA 2: AGCGTCTGACT
Work on B1 yielded a Kd (Smad4 MH1 domain [1]) of 270.5 ± 0.1 nM.

B2: NMR GGCTGCC duplex (dsDNA)
DNA 1: AGCCGGCTGCC
DNA 2: GGCAGCCGGCT
B2: binds (Smad4 MH1 domain [2]).

B3: GGCCG-XRAY (dsDNA)
DNA 1: ACGGGCCGCGGCCCGT
DNA 2: ACGGGCCGCGGCCCGT
B3: binds (Smad4 MH1 domain [3]).

B4: NMR GGCCGCGCC duplex (dsDNA)
DNA 1: AGGCCGCGCCGA
DNA 2: TCGGCGCGGCCT
B4: binds (Smad4 MH1 domain [4]).

B5: GC1 core (dsDNA)
DNA 1: TTAAGGCCGGGGCCGCGCCGGGAATT
DNA 2: AATTCCCGGCGCGGCCCCGGCCTTAA
With B5 the binding result [5] was “binds” and the Kd (Smad3 MH1 domain [6]) was roughly 100 nM.

B6: GGCGC-XRAY-Smad4 18mer (dsDNA)
DNA 1: ATGCGGGCGCGCCCGCAT
DNA 2: ATGCGGGCGCGCCCGCAT
B6: binds (Smad4 MH1 domain [7]).

B7: GGCT 16mer (dsDNA)
DNA 1: TGCAGGCTAGCCTGCA
DNA 2: TGCAGGCTAGCCTGCA
B7 gave a Kd (Smad4 MH1 domain [1]; self-complementary) of 250.5 ± 0.8 nM.

B8: -GGCCGC- (dsDNA)
DNA 1: ATTAGGCCGCAAAAAAAGCA
DNA 2: TGCTTTTTTTGCGGCCTAAT
B8: binds (Smad4 MH1 domain [8]).

B9: SBE / GTCT (dsDNA)
DNA 1: TGCAGTCTAGACTGCA
DNA 2: TGCAGTCTAGACTGCA
Binder B9 has a Kd (Smad4 MH1 domain [1]; label: 5' Cy5 in EMSA, self-complementary) of 200.3 ± 0.5 nM.

B10: -GGCTGCC- (dsDNA)
DNA 1: GTAACCGGCTGCCGAATG
DNA 2: CATTCGGCAGCCGGTTAC
B10: binds (Smad3 MH1 domain [9]); binds (Smad4 MH1 domain [8]).

B11: GC2_14 (CCTGGGC) (dsDNA)
DNA 1: AACCTGGGCAATTA
DNA 2: TAATTGCCCAGGTT
B11: no binding (Smad4 MH1 domain [10]).

B12: FoxH1 site (dsDNA)
DNA 1: TCTCAATCCACAATC
DNA 2: GATTGTGGATTGAGA
B12: no binding (Smad4 MH1 domain [10]).

B13: -GGCCGG- (dsDNA)
DNA 1: ATTATTGGCCGGAAAGCA
DNA 2: TGCTTTCCGGCCAATAAT
B13: binds (Smad4 MH1 domain [8]).
